B1: TBC1 domain family member 22B (Homo sapiens), Q9NU19 (parent)
chain: MAAENSKQFWKRSAKLPGSIQPVYGAQHPPLDPRLTKNFIKERSKVNTVPLKNKKASSFHEFARNTSDAWDIGDDEEEDFSSPSFQTLNSKVALATAAQVLENHSKLRVKPERSQSTTSDVPANYKVIKSSSDAQLSRNSSDTCLRNPLHKQQSLPLRPIIPLVARISDQNASGAPPMTVREKTRLEKFRQLLSSQNTDLDELRKCSWPGVPREVRPITWRLLSGYLPANTERRKLTLQRKREEYFGFIEQYYDSRNEEHHQDTYRQIHIDIPRTNPLIPLFQQPLVQEIFERILFIWAIRHPASGYVQGINDLVTPFFVVFLSEYVEEDVENFDVTNLSQDMLRSIEADSFWCMSKLLDGIQDNYTFAQPGIQKKVKALEELVSRIDEQVHNHFRRYEVEYLQFAFRWMNNLLMRELPLRCTIRLWDTYQSEPEGFSHFHLYVCAAFLIKWRKEILDEEDFQGLLMLLQNLPTIHWGNEEIGLLLAEAYRLKYMFADAPNHYRR
partner: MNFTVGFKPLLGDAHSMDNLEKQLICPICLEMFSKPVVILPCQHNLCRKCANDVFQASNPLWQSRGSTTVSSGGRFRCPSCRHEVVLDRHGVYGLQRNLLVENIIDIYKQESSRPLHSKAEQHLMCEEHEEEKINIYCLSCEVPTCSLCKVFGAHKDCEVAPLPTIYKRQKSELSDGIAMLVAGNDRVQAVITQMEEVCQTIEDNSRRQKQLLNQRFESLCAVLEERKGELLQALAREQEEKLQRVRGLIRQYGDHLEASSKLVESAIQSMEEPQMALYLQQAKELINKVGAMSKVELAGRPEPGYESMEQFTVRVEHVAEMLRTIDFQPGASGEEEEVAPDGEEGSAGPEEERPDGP
B2: Liprin-alpha-1 (Homo sapiens), Q13136 (parent)
chain: MMCEVMPTISEAEGPPGGGGGHGSGSPSQPDADSHFEQLMVSMLEERDRLLDTLRETQETLALTQGKLHEVGHERDSLQRQLNTALPQEFAALTKELNVCREQLLEREEEIAELKAERNNTRLLLEHLECLVSRHERSLRMTVVKRQAQSPAGVSSEVEVLKALKSLFEHHKALDEKVRERLRVALERCSLLEEELGATHKELMILKEQNNQKKTLTDGVLDINHEQENTPSTSGKRSSDGSLSHEEDLAKVIELQEIISKQSREQSQMKERLASLSSHVTELEEDLDTARKDLIKSEEMNTKLQRDVREAMAQKEDMEERITTLEKRYLAAQREATSVHDLNDKLENEIANKDSMHRQTEDKNRQLQERLELAEQKLQQTLRKAETLPEVEAELAQRVAALSKAEERHGNIEERLRQMEAQLEEKNQELQRARQREKMNEEHNKRLSDTVDKLLSESNERLQLHLKERMAALEDKNSLLREVESAKKQLEETQHDKDQLVLNIEALRAELDHMRLRGASLHHGRPHLGSVPDFRFPMADGHTDSYSTSAVLRRPQKGRLAALRDEPSKVQTLNEQDWERAQQASVLANVAQAFESDADVSDGEDDRDTLLSSVDLLSPSGQADAHTLAMMLQEQLDAINKEIRLIQEEKENTEQRAEEIESRVGSGSLDNLGRFRSMSSIPPYPASSLASSSPPGSGRSTPRRIPHSPAREVDRLGVMTLLPPSREEVRDDKTTIKCETSPPSSPRALRLDRLHKGALHTVSHEDIRDIRNSTGSQDGPVSNPSSSNSSQDSLHKAPKKKGIKSSIGRLFGKKEKGRPGQTGKEALGQAGVSETDNSSQDALGLSKLGGQAEKNRKLQKKHELLEEARRQGLPFAQWDGPTVVVWLELWVGMPAWYVAACRANVKSGAIMSALSDTEIQREIGISNPLHRLKLRLAIQEIMSLTSPSAPPTSRTTLAYGDMNHEWIGNEWLPSLGLPQYRSYFMECLVDARMLDHLTKKDLRGQLKMVDSFHRNSFQCGIMCLRRLNYDRKELERKREESQSEIKDVLVWSNDRVIRWILSIGLKEYANNLIESGVHGALLALDETFDFSALALLLQIPTQNTQARAVLEREFNNLLVMGTDRRFDEDDDKSFRRAPSWRKKFRPKDIRGLAAGSAETLPANFRVTSSMSSPSMQPKKMQMDGNVSGTQRLDSATVRTYSC

Variants of: B1
Details: with tri54_human TRIM54, Q9BYV2

effect of a mutation on the interaction | Variant
disrupting interaction strength | A349T

Variants of: B2
Details: with txlna_human TXLNA

effect of a mutation on the interaction | Variant
with no effect | P389L

Variants of: B2
Details: with 2a5d_human PPP2R5D

effect of a mutation on the interaction | Variant
with no effect | P389L

Variants of: B2
Details: with ccnh_human CCNH

effect of a mutation on the interaction | Variant
with no effect | P389L

Variants of: B2
Details: with 2a5d_human PPP2R5D
Remark: another data set of the same source

effect of a mutation on the interaction | Variant
disrupting interaction strength | L330F

Variants of: B2
Details: with ccnh_human CCNH
Remark: another data set of the same source

effect of a mutation on the interaction | Variant
disrupting interaction strength | L330F
